Data: patent publication US20120244131

Test system: T1, SC_RAG single-chain meganuclease (I-CreI derived) (artificial sequence)
T1 sequence: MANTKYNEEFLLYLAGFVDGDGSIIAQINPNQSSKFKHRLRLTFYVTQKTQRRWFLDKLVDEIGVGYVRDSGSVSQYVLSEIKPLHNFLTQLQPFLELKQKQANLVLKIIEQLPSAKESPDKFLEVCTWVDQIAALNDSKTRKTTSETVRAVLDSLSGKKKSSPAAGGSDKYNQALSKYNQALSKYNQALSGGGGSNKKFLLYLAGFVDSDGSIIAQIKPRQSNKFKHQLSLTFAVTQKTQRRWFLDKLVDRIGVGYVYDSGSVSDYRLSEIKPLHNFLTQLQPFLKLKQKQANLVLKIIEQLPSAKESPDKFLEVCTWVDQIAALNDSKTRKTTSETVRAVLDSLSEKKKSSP
Test: cell_activity
Conditions: endogenous locus in 293H, siRNA control AS, deep sequencing, +/-0.13

endogenous human RAG1 locus target of SC_RAG
activity (% NHEJ mutagenesis): 0.66
